Measurements from IntAct's records for PubMed 31116475.

Molecular target: aimp2_crigr AIMP2 (UniProt Q9WVM7)
Sequence (Q9WVM7 whole entry): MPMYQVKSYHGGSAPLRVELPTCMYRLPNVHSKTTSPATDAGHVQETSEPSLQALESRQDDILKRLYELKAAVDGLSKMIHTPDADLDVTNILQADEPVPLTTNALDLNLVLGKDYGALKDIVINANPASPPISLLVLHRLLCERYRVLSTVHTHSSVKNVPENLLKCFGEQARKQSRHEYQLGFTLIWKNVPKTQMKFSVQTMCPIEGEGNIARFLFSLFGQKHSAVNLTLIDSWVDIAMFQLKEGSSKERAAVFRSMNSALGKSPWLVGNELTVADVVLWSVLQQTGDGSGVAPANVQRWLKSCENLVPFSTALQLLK

Chain of Lysine--tRNA ligase (Cricetulus griseus (Chinese hamster)), P37879 P200L (P37879 whole entry P200L): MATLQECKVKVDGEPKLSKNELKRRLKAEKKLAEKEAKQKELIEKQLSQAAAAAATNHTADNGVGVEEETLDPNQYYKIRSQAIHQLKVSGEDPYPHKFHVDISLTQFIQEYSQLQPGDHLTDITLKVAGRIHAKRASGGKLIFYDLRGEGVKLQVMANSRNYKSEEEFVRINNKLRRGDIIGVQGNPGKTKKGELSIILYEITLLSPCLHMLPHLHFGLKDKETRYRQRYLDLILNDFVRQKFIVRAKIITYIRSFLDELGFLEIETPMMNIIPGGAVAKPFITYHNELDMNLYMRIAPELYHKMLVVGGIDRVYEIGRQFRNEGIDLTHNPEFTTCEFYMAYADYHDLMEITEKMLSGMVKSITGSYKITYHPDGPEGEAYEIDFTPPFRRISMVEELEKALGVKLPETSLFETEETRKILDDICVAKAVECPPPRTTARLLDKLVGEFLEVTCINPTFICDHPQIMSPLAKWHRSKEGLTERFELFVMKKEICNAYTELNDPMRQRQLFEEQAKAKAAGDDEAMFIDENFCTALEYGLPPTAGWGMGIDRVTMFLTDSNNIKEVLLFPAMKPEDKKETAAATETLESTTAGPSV
Chain of Lysine--tRNA ligase (Cricetulus griseus (Chinese hamster)), P37879 F263V (P37879 whole entry F263V): as the sequence (P37879 whole entry P200L) above, with L200P, F263V counted along it

effect of a mutation on the interaction | Substance
decreasing interaction strength | Lysine--tRNA ligase (Cricetulus griseus (Chinese hamster)), P37879 F263V
decreasing interaction strength | Lysine--tRNA ligase (Cricetulus griseus (Chinese hamster)), P37879 P200L
